In paper PMC10284691, “A tripartite rheostat controls self-regulated host plant resistance to insects” (Nature, 2023) one finds Kd data, which are given here for one molecule.

Experiment [1] deals with T1, BISP(26–124) (purified from insect cells) (Nilaparvata lugens (brown planthopper)).
T1 construct: source: SF9 insect cells (baculovirus), purified (Ni-NTA, dialysed in PBS)
In words: BLI; Octet RED96; biotinylated LRR or N14–LRR (20 μg/ml) on streptavidin biosensors, BISP, BISP(26–124) or BISP(125–241) in solution at different concentrations; PBS pH 7.4 with 0.05% Tween 20 and 0.5% BSA; 25 °C; association 180 s, dissociation 180 s; global fit. The settings on record: both partners purified. Background: Biolayer interferometry detects binding as a change in optical thickness at a sensor tip.

Experiment [2] has as its target T2, BISP (purified from insect cells) (Nilaparvata lugens (brown planthopper)).
T2 construct: probably this one too; source: SF9 insect cells (baculovirus), purified (Ni-NTA, dialysed in PBS)
The experiment is described as above. To be noted: both partners purified.

One may read the Kd as the equilibrium constant for the complex coming apart.

B1: BPH14–LRR (purified from insect cells) (domain or fragment)
chain: SGDRPEAIRTPSPEKGYPGIQTLICSRFKYLQNVSKYRSLRVLTTMWEGSFLIPKYHHHLRYLDLSESEIKALPEDISILYHLQTLNLSRCLSLRRLPKGMKYMTALRHLYTHGCWSLGSMPPDLGHLTCLQTLTCFVAGTCSGCSDLGELRQLDLGGRLELRKLENVTKADAKAANLGKKEKLTKLTLIWTDQEYKEAQSNNHKEVLEGLTPHEGLKVLSIYHCGSSTCPTWMNKLRDMVGLELNGCKNLEKLPPLWQLPALQVLCLEGLGSLNCLFNCDTHTPFTFCRLKELTLSDMTNFETWWDTNEVQGEELMFPEVEKLSIESCHRLTALPKASNAISESSGEVSTVCRSAFPALKEMKLYDLRIFQKWEAVDGTPREEATFPQLDKLEIRQCPELTTLPEAPKLSDLEISKGNQQISLQAASRHITSLSSLVLHLSTDDTETASVAKQQDSSDLVIEDEKWSHKSPLELMVLSRCNLLFSHPSALALWTCFAQLLDLKIRYVDALVSWPEEVFQGLVSLRKLEISVCENLTGHTQARGQSTPAPSELLPRLESLEITCCDSIVEVPNLPASLKLLEIRGCPGLESIVFNQQQDRTMLVSAESFAEQDKSSLISGSTSETNDHVLPRLESLVINWCDRLEVLHLPPSIKKLGIYSCEKLRSLSVKLDAVRELSIRHCGSLKSLESCLGELASLQQLKLFDCKSLESLPKGPQAYSSLTSLEIRGCSGIKVLPPSLQQRLDDIEDKELDACYEEAEAEPKSRHRQSAISRLMCLK
modifications: biotin (NHS-biotin) in the BLI assays; RED-NHS 2nd Generation dye in the MST assays
Regarding B1, the figures for the Kd in experiment [1] and in experiment [2] were 127 nM and 32.1 nM, respectively.
